We go through 20 sequences from the DeepSol protein solubility set.

The nature of the data set: soluble on expression in E. coli; label from the status in PepcDB or PDB records.
As to “AIAGTHSGHERNGESARGGALQRLERRLAAAWAEQDAYQIEQLAGMIYDRLVRSDPSAAATVLEQNAHRLAVAGKPAEAAELATRLIRHWRELEQRPFYLARLQQMVLEPLQALSGVEAARARTMVLEAVLAWKRASATVDTEEAAPAELAPVQDALVDAYVLCGEWARAQYQVVCRGGPAERDLAFIDEQLGPHLANDVERMLARTRLVLFYVLAGNLKAGRALVEEIQRKHPTAPMTNFVVILMQVLERARNVDSSKRRLLRNFCDDLKRVYHWAFSLDPELDAMLDDVLKAQGL”, the “soluble on expression in E. coli” value is given as “soluble”.

“MSLGRDKDLNILCWEGYNSAQVLDPFRKLTGATVKAESSTNDPTMINRLRAGETNVWDLINVNNPWARKILWPQNLIKPLDRAEFEPFFDKMLPEFKAPYRWAMSDDGKDLLGMAQRFGPFCFVVDTDKISRQTAEDQGWDLWNDKALAGRYGIQESDDWNVFGLFLIAGINPFKTHTEAELAKFEETAKAVFKGAKVVGDMASMNQALVSGEIDLYLSGGTYTVSPARAEGLGNLRGITPLRGPIDGKGGVMWVEITSQVNNPQLSPLAGQFLKHVQTPQVAHTVAFAEGTFNPIAQMGNPDCFKLFSKAELDAIQWDSLAEEMARSVAYDIVPDYDKALDLMTAAKRVRGEGHHHHHH”: the “soluble on expression in E. coli” value is reported as “soluble”.

“MRPEELTKRFNEFSLWMTEEGVEQMSSYRNTNWEALKTELGKLPTLRHSCKNHVPQLVKEFCLEKRRYGVNPMYVHFLFCYYKKNIEDTRGRLEDDKETLEEIQRTHDELNVKFEELNKVKTFIKKQKESKGNVYLPNEYTEKHRLQNTIDNLKDKIQILVSTRNEQLWDFDNIPDGFQPMLELHHLKKDQVVYFVEKYLQRYTLGNKHKEIQLIVGKGSHSIDNDSAIQRKIRRNYAENVRSHPKNYGILLLKVP”: the “soluble on expression in E. coli” value is recorded as “not soluble”.

Turning to “MGSDKIHHHHHHMFSLEQLEAFMETVESGSFSNAARQLKKAQSVVSQHVMNLEIDCGVELFDRSGRYPVLTAEGSKLLPYARATILQHRRLKHTALSLFSRQSSEVCLAMDEGIPIQRISEIIQLLESDFPNIELEFLSASSIDIIDMVHSGRASTGLIFSELSMPSSIDFESIGVIEFDLYVASSHPLAKSVAPNMDSLRLYRQLCIRSRNTKTSSFQQVFSPDVWYADNYYVLLELALQGHGWCLLPEHMASSSVSSGNLTRVPIEFEQIGWYANVDVIQHQDKSSLPLLKRLRQLFRELLVGQK”, the “soluble on expression in E. coli” value is given as “not soluble”.

For the sequence “MLIKQTDYFRIYRVINSLLISQNADPASASMYFSTFGAFILQQHYKVKAVPKGGLAAYNLGGTVLLFADHREDGYVTGAGENFHCWVEADGWAIDFMAPAFSEGTDALAVPAKMFQRPLSAMAASINDLGQSGDFFYRSEPEATARRFADWHKQAMIGDMASVAANWFRKSPKQMAASLSVTDRDGKARTVPLTGEMLTGAW”, the “soluble on expression in E. coli” value is recorded as “soluble”.

Regarding “MGSDKIHHHHHHMKFSKLADQVWGEEPDDQVRSFVFMSNLDAQETANTMDVSVSVERIHADLCGNTELASELHYTPDEWDEAQGWVKINYPLIDDTASASLDVVLDATFQPLPGQPFEGEALTLIDALLHHAENVAASNPWKRTTFHTAHMHPPGSNADCDYCLVLQRRGYVKAHEEIQQTIPLPSGDWSAGEFTVVDVEGTAFPSALIPSIVELQHRAALDVPHGNLSVAPAQWDEHRLAQQSERILKTGTKLFTVLFAEGSTVAAMSSIAIPPGSNPDIAEQGLTIVHPDFRGRGLGTAVKLAGLSLLSRCHPEIQRVATSNAVDNHAMLAINRSIGATEIARTTLWEKKL”, the “soluble on expression in E. coli” value was “not soluble”.

Consider “MQSKTAKLPDNDRNRPLIQTFNDAQQKVWFDDALLHEDPSQCCNPEFWQQNGKVLGSATGRGTTWFVQLQQTQGALRHYRRGGLFGKLVADSYWFTGWEKTRSYQEFMLLNHLRDAGVNVPRPIAARVQKHGLLYKADLLSEKVPNARDLVSILQESPISDELYRKIGREIRKMHDAQVNHTDLNIHNILIDDQEKVWIIDFDKCYVQIGDSWKQGNLKRLKRSFEKEVCKRGINWSLEAFAIISSYKHEE”, for which the “soluble on expression in E. coli” value is reported as “not soluble”.

Regarding “MEYGDRHITVVDEHGNEQLCEILFTFESDDFGKSYVFYYPVGVEAEDENGETEVHVSAFIPGDENKEGELLPIETEEEWDMIEEVWNTFCAEQEEEDDE”, the “soluble on expression in E. coli” value is “not soluble”.

Take “MKPEKRHATESMTMEALLDLLPKDAATDPTGRRLAELVTRIATKRVPVSSFSRIWNLGSLQARVTIGYVAYWLRSRFADSDEKQRLRNEAHLAAALRLFGTMGYLRGAVMKIGQLLANLPEVVPEEFAEVLSALHFEAPPMHFSLVRELFLDEFGREPEELFASFDRQAFAAASLGQVHRARLKSGEEVAVKIQYPGIARTIKADLRNLRLLLQPLCLTNDWQNTLDKLADIEQMLLMETDYEQEARFCREARLLFTTEDRVVVPRVFDDYSTKRVLTTEFLTGCHLDQFLAGNPSQAERDHFTTLLTVATMRIYYRLHWFCADPHPGNFIFMLDGRLGLIDFGCTRAMNGEEWRLICELEQAHQEEDAEQFDRVIARATLYDSPEAMGKEQLAVVRRNVLWNMEPWLKEGLFDFGDREFFMRGIDGLMELTRKRYTRGSPLYLWSTRFVLGGRAVCYQMRGRCEFQEIFRQESAWVCPEPPILEHHHHHH”: the “soluble on expression in E. coli” value is “not soluble”.

Consider “MGSDKIHHHHHHMDEQTHTHLSRRRTLTASAGVLSAGLAGCITSGDTDGDPESGPTVAVASFFSFYDFARKIVADTPITVRNLIPTGLHGHGWEPNASITKEILDADALIHVGPDFQPWVDRAIESLDDDDADTRRINVRDGVELVDLAASLDRDEEGIGQNRGKDPHFWLDPNRAKQSIDNLTEGFVQLAPSHENTLRTNAAAYKSGVLDELDDAYAAIFDRADRDVVQLAAHNAFQYLGTAYDIEMRPLVVNLAASGTVKASDIMDAKQTIDDNDITYIGAAVFETRRPAEQLLSETDVEAYYPVTPYAGVREDWVQQGWGYEEIARNINMPTFKLLLGNAAPDDVGGAEWNATWRNFE”, for which the “soluble on expression in E. coli” value is “not soluble”.

For “MGSDKIHHHHHHMVSKYHEIFLNIIQQIEDGQLKRGDKLPSIRQLSQDFHCSKDTVQKALSELKYQKYIYPILKSGYYVFEDNHEEEILPPISPSNYHNIAYEDFRTCMNETLVGREDYLFNYYHQEEGLEELTQSLQALFVDEAIYSKKENIVVTSGSQQALYILSQMTFPNQKEIILLEQPTYHRMNTLVKSQNLPYLTIERGFDGLDFNRLEEIFKQEKIKFFYTIPRLSNPLGLSYSHKEKQTLVELAHKYDVYIIEDDYMADFDRASNVSLHYLDTNDRIIYLKSFSMSLFPALRLGSLILPKKLLKKFLDYKNLIDYDTNLIMQKALSLYIDNGMFAKNKKRLKQMYYQKTSELAKEFSTFTLKLPHHIFQDSLILQLPTKVNLALLKYRLNSPNFLEKNYISTCPYHFIQLQAGENWQNLLTIFE”, the “soluble on expression in E. coli” value is “not soluble”.

As for “MTVYNRTKQKTEDLVTEGAQAADTPRLAAKSADIVITMLADDDSVSTVTFGEDGLLEGLAENGIHISMSTISVEFSEKLAAAHAEKGQFFLAAPVLGRPDAAAKAALRIITAGPAEAKQAAKPLLDSLSQQIFDVGEESKTANAAKISINFLLVSMLEALSESFLMMEKYGLEQKQFLEIASALFGSPVYQNYGTIMAEQKFEPAGFKMSLGLKDTNLALAAAKRVSANLPLAELAKSHFESGIEKGFGDLDWAALIKCIK”, the “soluble on expression in E. coli” value is “not soluble”.

Consider “MSLENICDMNNKVKVAVLDTGIDKEHDYLKDNLVGGIAFECMHDYIFISDKFDDEDGHGTACASIIKKEYEDVELFVIKILRKDGITNIKVLEEALRYLLDTNIRLINLSLSVIGVESVKGLFEVCYELFRKGKIIVCSLANDFDLSYPAMFNNVIGVRGFTLDGDDSFWYNKKYDVQCVMDSNSYISCDINNSYRLPPKCNSYLSAKLTGKIAKILSEKPGITISDLNDKLESLATRNHWDSCDFDECSRIVNFKLDLYDKENALFEGHHHHHH”, for which the “soluble on expression in E. coli” value is reported as “soluble”.

“MGSDKIHHHHHHMSVLIECRDLSHSYGEKTVLHDLSFTVRQGGVFGLLGKNGAGKSTTINILMGFLRPGSGSCRVLGEPSHALSPHARRRIGLLHEGFIQYDFMTIAELERYYAAFYPLWDRSVFFDLTDRLQVPYSRRISCLSCGQRSQVVLGLIMAQQPQLMILDDYSMGLDVGYRRLFIDFLREYVAKRGTTVLLTSHVVQELDKIVDNMIVLREGRVAVSGSKKEFMDSFRCYSFARSPASDALHADTVLENVEHMGSVTTVYAFADGEPVARHLRDRGVDPQNMTPVPMDFEDAFVGLTGKY”: the “soluble on expression in E. coli” value was “not soluble”.

With “YHTEKTLPERTNEAAMSAAVVRGKLVWEQNNCVGCHTLLGEGAYFAPELGNVVGRRGGEEGFNTFLQAWMNIQPLNVPGRRAMPQFHLSEGQVDDLAEFLKWSSKIDTNQWPPNKEG”, the “soluble on expression in E. coli” value is on record as “not soluble”.

Turning to “GMEKRLDYITDLMALGPTANARTIQRRQTAHRLAIAEAWQVKPGEKILEIGCGQGDLSAVLADQVGSSGHVTGIDIASPDYGAPLTLGQAWNHLLAGPLGDRLTVHFNTNLSDDLGPIADQHFDRVVLAHSLWYFASANALALLFKNMAAVCDHVDVAEWSMQPTALDQIGHLQAAMIQGLLYAIAPSDVANIRTLITPDTLAQIAHDNTWTYTAGTIVEDPTLDDAHWEIATTNALLTELKLSTDLRDRVKPLLEAMSHNGTASLATFTGRITF”, the “soluble on expression in E. coli” value is “soluble”.

“MGSDKIHHHHHHMEKIVQTAGRNALGEFAPEFAHFNDDVLFGENWNNQDIDVKTRSIITVVALMASGITDSSLIYHLQNAKEHGVTQKEIAAVITHVAFYAGWPKAWAVFNLAKEVWEAGEGDLPYEEEAMRAHAKEMAFPIGAPNDGFAQYFSGRSFLAPISTSQIGIFNVTFEPGCRNNWHIHHAKSGGGQILVCVAGRGYYQEEGKEAVEMKPGDCINIPTGVKHWHGAAPDEWFSHLAIEVPGVDCSNEWCEAVSEKEYAGLR”: the “soluble on expression in E. coli” value is “not soluble”.

As to “GHMKSEKEKMLAGHLYNPADLELVKERERARRLVRLYNETLETEYDKRTGLLKELFGSTGERLFIEPNFRCDYGYNIHVGENFFMNFDGVILDVCEVRIGDHCFIGPGVHIYTATHPLDPHERNSGLEYGKPVVIGHNVWIGGRAVINPGVTIGDNAVIASGAVVTKDVPANAVVGGNPAKVIKWLK”, the “soluble on expression in E. coli” value is “soluble”.

Regarding “MKKYTLIATAPMGIEAVVAKEVRDLGYECKVDNGKVIFEGDALAICRANLWLRTADRIKVQVASFKAKTFDELFEKTKAINWRSFIPENGKFPVIGKSVKSTLASVPDCQRIVKKAIVEKLKLQSGKANDWIEETGAEYKVEISLLKDQALITLDSSGTGLHKRGYRVDQGGAPIKETLAAALVQLTNWTPDRPFVDPFCGSGTIAIEAALIGQNIAPGFNRDFVSEDWEWIGKDLWNKARLEVEEKANYDQPLTIFASDIDHRMVQIAKENAEEAGLGDLIQFKQMQVKDFTTNLEFGVIVGNPPYGERLGEKKAVEQMYKEMGQAFEPLDTWSVYMLTSNENFEEAYGRKATKKRKLFNGFIKTDYYQYWSKVRPQRKKTENA”, the “soluble on expression in E. coli” value is listed as “not soluble”.

With “MGSDKIHHHHHHMQEQINLSEWRERARSFEQSANKVVLGLERQVRALTIAIFSRGHVLLEGDVGVGKTTLLKAASRLLGGAYQRIEGAIDLMPGDFLYHAYIDQNGQPAVAPGPLLRHEENLAVFFFNEINRARPQAHSLLLRLMAERSVNAFNRDYAFPHLTVFADRNGLEREETFELPAAARDRFFMEVSVTAPEDKELQRDLMFSTRFHDADALIETLEPGLVPYDKLNAVSAAIQESVRSELALQDYAVNIWQALRHPERIGIEIEDVDISRLVAGGASPRGMAMLMRAARTRAWLEGRDYLTPDDIRAVFPETVGHRVFFTPAYELRRDEIAPALLSGVLNKIPAP”, the “soluble on expression in E. coli” value is on record as “not soluble”.
